Data taken from patent US20260055187A1 (SANTA ANA BIO, published 2026).

Assays:
PD-1 biotin = target: T1, PD-1 biotin (UniProt Q15116 25-167, limits assumed, biotin (site not stated)); experiment: PD-1/PD-L1 blocking ELISA, interpolated on a standard curve of a PD-1 neutralizing antibody
T1 construct: also called biotinylated PD-1
Experimental: The ability of disclosed PD-1 antibodies to block the PD-1/PD-L1 interaction was assessed using an ELISA based assay.
Briefly, human PD-L1 was immobilized on 96 well ELISA plates. Plates were washed and blocked for 1.5 hours at 37° C. with block buffer. Plates were washed and test PD-1 antibodies, isotype controls, or a standard curve of PD-1 neutralizing antibody were added to the coated plate and incubated for 1 hour at 37° C. […] Following washing, streptavidin-HRP was added to the plate and the plate was incubated at 37° C. for 1 hour. After a final wash, antibody binding was detected colorimetrically by adding a subrate solution and incubating for 20 minutes protected from light before adding stop solution. Absorbance at 450 nm was measured on a plate reader (PerkinElmer). Data was analyzed using GraphPad Prism.
Percent blocking of tested PD-1 antibodies was determined by interpolating values obtained from each sample against the standard control curve (see FIG. 1) and summarized in Table 4.

[1] = target: T2, ICOS extracellular domain (PD-1 family member) (UniProt Q9Y6W8 21-140, limits assumed); experiment: ELISA, His-tagged extracellular domain on plate
T2 construct: extracellular domain; not shown: His tag
T2 sequence (looked up): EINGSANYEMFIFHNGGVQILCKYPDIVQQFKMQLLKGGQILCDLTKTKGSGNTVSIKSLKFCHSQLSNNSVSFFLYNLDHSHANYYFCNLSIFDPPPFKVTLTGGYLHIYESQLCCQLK
Experimental: (§1) His-tagged extracellular domains of human PD-1, cynomolgus PD-1, and PD-1 family members ICOS, CD28, and CTLA-4 extracellular domains were immobilized on 96 well ELISA plates. Plates were washed with PBST (phosphate buffered saline+0.05% Tween 20) and blocked for 1 hour with 1% BSA in PBS. Following washing with PBST, test PD-1 antibodies were added to the coated plate and incubated for 2 hours at room temperature. Plates were washed and incubated with HRP-conjugated goat anti-human IgG secondary antibody for 1 hour at room temperature. Following washing, antibody binding was detected colorimetrically by adding 3,3′,5,5′-tetramethylbenzidine (TMB) and incubated at room temperature for 10-20 minutes before adding 2.5N sulfuric acid stopping solution. Absorbance at 450 nm was measured on a plate reader (PerkinElmer). Data was analyzed using Graph-Pad Prism.

[2] = target: T3, CD28 extracellular domain (PD-1 family member) (UniProt P10747 19-152, limits assumed); experiment: ELISA, His-tagged extracellular domain on plate
T3 construct: extracellular domain; not shown: His tag
Experimental: as §1

[3] = target: T4, CTLA-4 extracellular domain (PD-1 family member) (UniProt P16410 36-161, limits assumed); experiment: ELISA, His-tagged extracellular domain on plate
T4 construct: extracellular domain; not shown: His tag
T4 sequence (looked up): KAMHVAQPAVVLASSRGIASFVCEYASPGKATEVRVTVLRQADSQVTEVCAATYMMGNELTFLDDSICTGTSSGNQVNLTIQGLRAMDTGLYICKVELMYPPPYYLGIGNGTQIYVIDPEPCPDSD
Experimental: as §1

T3 sequence (P10747 19-152 limits assumed): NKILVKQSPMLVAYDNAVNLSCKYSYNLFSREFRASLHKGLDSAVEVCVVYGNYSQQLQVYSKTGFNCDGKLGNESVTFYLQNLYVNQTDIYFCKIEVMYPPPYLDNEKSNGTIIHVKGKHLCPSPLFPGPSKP
T1 sequence (Q15116 25-167 limits assumed): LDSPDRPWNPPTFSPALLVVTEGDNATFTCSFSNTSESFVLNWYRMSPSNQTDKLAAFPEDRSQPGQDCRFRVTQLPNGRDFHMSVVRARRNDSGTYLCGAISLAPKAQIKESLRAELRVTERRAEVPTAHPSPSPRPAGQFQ

B1: PD-1 antibody 1B8 (antibody, V domains shown)
VH: EVQLVLSGGGFVQPGGSLKLSCAASGFTFSSYAMSWVRQNPERRLVWVATITGGGRNTYYPDSVKGRFTISRDNAKNTLYLQMSSLRSEDTAMYYCTRQGYDGYTWFAYWGQGTLVTVS
VL: not shown
notes: detection used an anti-human IgG secondary antibody; also called Murine 1B8
Percent Blocking (PD-1 biotin): 90 percent | binding result [1]: no binding | binding result [2]: no binding | binding result [3]: no binding

B2: PD-1 antibody 20B3.1 (antibody, V domains shown)
VH: EVKLVESGGGLVKPGGSLKLSCAASGFTFSSFGMSWVRQTPEKRLEWVATISGGGSNTYYPDSVKGRFTISRDNAKNNLYLQMTSLTSEDTALYYCTRIYDVAWFAYWGQGTLVTVS
VL: not shown
notes: detection used an anti-human IgG secondary antibody; also called Murine 20B3.1
Percent Blocking (PD-1 biotin): 94 percent | binding result [1]: no binding | binding result [2]: no binding | binding result [3]: no binding

B3: PD-1 antibody 1-33 (antibody, V domains shown)
VH: QVQLVQSGAEVKKPGASVRVSCKASGYTLTSYYIHWVRQAPGQGLEWMGIINPRGATISYAQKFQGRVTMTRDTSTSTVYMELRNLKSEDTALYYCATAGIYGFDFDYWGRGTLVTVSS
VL: QSALTQPASVSGSPGQSITISCTGTSNDVGGYNYVSWYQHHPGKAPKLIIYDVTNRPSGVSDRFSGSKSGNTASLTISGLLAEDEGDYYCSSYTIVTNFEVLFGGGTKLTV
notes: detection used an anti-human IgG secondary antibody
Percent Blocking (PD-1 biotin): 68 percent | binding result [1]: no binding | binding result [2]: no binding | binding result [3]: no binding

B4: PD-1 antibody 3H4 (antibody, V domains shown)
VH: QIQLQQSGPELVKPGASVKISCKASGYTFTDYYINWVKQKPGQGLEWIGWIYPGSVNTKYNEKFRGKATLTVDTSSSTAYIQLSGLTSEDTAVYFCARYSNWFFDVWGAGTAVTVS
VL: DIVMTQSPSSLSASLGERVSLTCRASQEISGYLSWLQQKPDGTIKRLIYAASTLDSGVPKRFSGSRSGSDYSLSISSLESEDFADYYCLQYASYPYTFGGGTKLEIKR
notes: detection used an anti-human IgG secondary antibody; also called Murine 3H4
Percent Blocking (PD-1 biotin): 46 percent | binding result [1]: no binding | binding result [2]: no binding | binding result [3]: no binding

B5: PD-1 antibody 1-35 (antibody, V domains shown)
VH: QVQLQESGPGLVKPSQTLSLTCTVSGGSISSGAYYWSWIRQHPGKGLEWIGYIYYNGNTYYNPSLRSLVTISVDASKNQFSLKLSSVTAADTAVYYCARASDYVWGGYRYMDAFDIWGRGTLITVSS
VL: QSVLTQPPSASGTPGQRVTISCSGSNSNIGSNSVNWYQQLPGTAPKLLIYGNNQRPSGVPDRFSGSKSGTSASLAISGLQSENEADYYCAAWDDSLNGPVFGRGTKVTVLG
notes: as for B3
Percent Blocking (PD-1 biotin): 58 percent | binding result [1]: no binding | binding result [2]: no binding | binding result [3]: no binding

B6: PD-1 antibody 2.3A9 (antibody, V domains shown)
VH: QVQLQQSDAELVKPGTSVKISCKASGYTFTDHAIHWLKQEPDQGLEWIGYISPGYGDIEYNEKFKGKATLTADKSSSTAYMQLSSLTSEDSAVYFCKVTTGYWGQGTTLTVS
VL: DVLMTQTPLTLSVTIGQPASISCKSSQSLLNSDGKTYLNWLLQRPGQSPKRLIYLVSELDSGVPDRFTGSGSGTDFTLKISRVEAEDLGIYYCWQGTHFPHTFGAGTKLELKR
notes: detection used an anti-human IgG secondary antibody; also called Murine 2.3A9
Percent Blocking (PD-1 biotin): 0 percent | binding result [1]: no binding | binding result [2]: no binding | binding result [3]: no binding

B7: PD-1 antibody 1-17 (antibody, V domains shown)
VH: QVQLQESGPGVVKPSGTLSLTCAISGGSIGSGGSIRSTRWWSWVRQSPGKGLEWIGEIYHSGSTNYNPSLKSRVTISLDKSRNHFSLRLNSVTAADTAVYYCARQDYGDSGDWYFDLWGKGTMVTVSS
VL: NFMLTQPHSVSESPGKTVTISCTRSSGSIASNSVQWYQQRPGSSPTTVIYEDNQRPSGVPDRFSGSIDSSSNSASLTVSGLKTEDEADYYCQSSDSSAVVFGSGTKLTVL
notes: as for B3
Percent Blocking (PD-1 biotin): 7 percent | binding result [1]: no binding | binding result [2]: no binding | binding result [3]: no binding

B8: PD-1 antibody 1-28 (antibody, V domains shown)
VH: EVQLVQSGAEVKKPGASVKVSCKASGYRFTSYGISWVRQAPGQGLEWMGWISAYNGNTNYAQKLQGRVTMTTDTSTNTAYMELRSLRSDDTAVYYCARDADYSSGSGYWGQGTLVTVSS
VL: SYELTQPPSVSVSPGQTARITCSGDALPKQYAYWYQQKPGQAPVMVIYKDTERPSGIPERFSGSSSGTKVTLTISGVQAEDEADYYCQSADNSITYRVFGGGTKVTVL
notes: as for B3
Percent Blocking (PD-1 biotin): 87 percent | binding result [1]: no binding | binding result [2]: no binding | binding result [3]: no binding
